Data as given in patent US20180120314.

Assays:
[1] = target: T1, Methyl Red (MR)-AAPV-NBD-UBI29-41
T1 chain: AAPVKTGRAKRRMQYNRR

B1: human neutrophil elastase (HNE) (protein)
chain: IVGGRRARPHAWPFMVSLQLRGGHFCGATLIAPNFVMSAAHCVANVNVRAVRVVLGAHNLSRREPTRQVFAVQRIFENGYDPVNLLNDIVILQLNGSATINANVQVAQLPAQGRRLGNGVQCLAMGWGLLGRNRGIASVLQELNVTVVTSLCRRSNVCTLVRGRQAGVCFGDSGSPLVCNGLIHGIASFVRGGCASGLYPDAFAPVAQFVNWIDSIIQ
[1]
  bacterial labelling (NBD fluorescence, confocal microscopy) after cleavage of the probe in a co-culture of bacteria and neutrophils: These images confirm the ability of the probe to be cleaved by neutrophil derived HNE and to label bacteria
TAMRA-AAPV-NBD-PMX
  bacterial labelling by NBD fluorescence (confocal microscopy) after cleavage of the probe: Once the probe has been cleaved by elastase, the bacteria are labelled by the probe element due to the fluorescence of NBD
  fluorescence of the cleaved TAMRA compound (spectrophotometer, ex 525 nm, Em 580 nm): the fluorescence of the cleaved TAMRA compound increases in an elastase dependent manner and are inhibited with an elastase inhibitor such as sivelestat
